Laboratory results taken from US20200165330A1 (ORDER MADE MEDICAL RESEARCH, published 2020).

Tests used:
[1] = biological target: T1, Human recombinant VEGF165 (human, UniProt P15692 181-395); test: ELISA, human VEGF165 coated at 20 ng/well, antibody serially diluted from 1 ug/ml, peroxidase anti-human Ig, absorbance 450 nm
T1 construct: also called rhVEGF165; rhVEGF
Description: (§1) Next, after 3 times of washing with 300 μL of 0.02% Tween 20-containing PBS (−) (hereafter, denoted as “PBS-T”), 300 μL of 3% skim milk-containing PBS (−) was dispensed to each well, followed by blocking at 37° C. for 1 hour. […] After washing similarly, TMB Single Solution was added for color development at room temperature. After the reaction was stopped with 1 N sulfuric acid, absorbance at 450 nm was measured using a plate reader (Molecular Devices).

human VEGF121 = biological target: T2, human VEGF121 (human, UniProt P15692 207-321); test: ELISA, human VEGF121 coated at 20 ng/well, antibody serially diluted from 1 ug/ml, peroxidase anti-human Ig, absorbance 450 nm
T2 sequence: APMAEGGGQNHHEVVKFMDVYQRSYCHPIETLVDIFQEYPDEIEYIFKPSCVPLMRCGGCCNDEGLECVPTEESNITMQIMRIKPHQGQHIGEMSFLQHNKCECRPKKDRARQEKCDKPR
Description: as §1

canine VEGFA (VEGF164) = biological target: T3, canine VEGFA (VEGF164) (canine, UniProt Q9MYV3-3 27-190); test: ELISA, canine VEGFA coated at 20 ng/well, antibody serially diluted from 1 ug/ml, peroxidase anti-canine Ig, absorbance 450 nm
T3 construct: also called canine VEGF164
T3 sequence (looked up): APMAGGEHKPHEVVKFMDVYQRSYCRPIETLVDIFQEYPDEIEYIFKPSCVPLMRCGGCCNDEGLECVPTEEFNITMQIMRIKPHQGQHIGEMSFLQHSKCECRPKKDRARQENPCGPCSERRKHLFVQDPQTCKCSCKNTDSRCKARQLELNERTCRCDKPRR
Description: (§2) Next, after 3 times of washing with 300 μL of 0.02% Tween 20-containing PBS (−) (hereafter, denoted as “PBS-T”), 300 μL of 3% skim milk-containing PBS (−) was dispensed into each well, followed by blocking at 37° C. for 1 hour. […] After washing similarly, TMB Single Solution was added for color development at room temperature. After the reaction was stopped with 1 N sulfuric acid, absorbance at 450 nm was measured using a plate reader (Molecular Devices).

[2] = biological target: T1, Human recombinant VEGF165; test: ELISA, human VEGF165 coated at 20 ng/well, antibody serially diluted from 1 ug/ml, peroxidase anti-canine Ig, absorbance 450 nm
Description: as §2

[3] = biological target: T1, Human recombinant VEGF165; test: SPR, BIAcore-3000, rhVEGF immobilized on the chip, antibody injected
[4] = biological target: T1, Human recombinant VEGF165; test: measured KD for rhVEGF set against a cited KD of Avastin; the excerpt does not show the method

B1: human IgG1 chimeric KLHb1501 antibody (antibody, V domains shown)
VH: DVQLQESGPGLVKPSQSLSLTCTVTGYSITSDYAWTWIRQFPGDKLEWMGYISYSGSTRYNPSLKSRISITRDTSKNQFFLHLNSVTTEDTATYFCARGGDYYGSRPWFAYWGQGTLVTVSA
VL: QAVVTQESALTTSPGETVTLTCRSSTGAVTISNYANWVQEKPDHLFTGLIGGTNNRAPDVPARFSGSLIGDKAALTITGAQTEDEAIYFCALWYSNHLVFGEGTKLTVL
notes: also called KLHb1501HC; KLHb1501HC antibody
- EC50 (read off the curve) [1]: ~0.04 µg/mL
- EC50 (read off the curve) (human VEGF121): ~0.04 µg/mL

B2: canine-IgGB chimeric KLHb1501 antibody (antibody, V domains shown)
VH: B1 VH
VL: QAVVTQESALTTSPGETVTLTCRSSTGAVTISNYANWVQEKPDHLFTGLIGGTNNRAPDVPARFSGSLIGDKAALTITGAQTEDEAIYFCALWYSNHLVFGEGTKLTVLQ
notes: also called KLHb1501CC; KLHb1501CC antibody
- EC50 (read off the curve) (canine VEGFA (VEGF164)): ~0.03 µg/mL
- EC50 (read off the curve) [2]: ~0.03 µg/mL

B3: KLHb1501 (antibody, V domains shown)
VH: B1 VH
VL: B1 VL
notes: also called KLHb1501 antibody; KLH1501
- Kd [3]: 0.6 pM
- ratio of dissociation constant to that of Avastin (bevacizumab) [4]: ≤ 0.001 ratio (KD of the antibody / KD of Avastin, cited as 4.9 nmol/L)
